According to patent US20170037111A1, “Novel peptides and combination of peptides for use in immunotherapy against ovarian cancer and other cancers” (immatics biotechnologies GmbH, priority 2015, published 2017):

Target: HLA-A*02:01 (Homo sapiens, UniProt P04439, D140Y/D185E/D98H/E176V/E277Q/G131W/G231S/I119V/I121R/I166T/I218V/L300P/L318F/N151K/N90K/P208A/P217A/Q86G/Q94H/R138H/R169H/T345S)
Assay: MHC binding assay (UV-ligand exchange, β2m ELISA, peptide exchange yield)
Details: MHC class I binding score; binding to HLA-A*02:01 ranged by peptide exchange yield (UV-ligand exchange, β2m ELISA)
Source text: Candidate peptides for T cell based therapies according to the present invention were further tested for their MHC binding capacity (affinity). The individual peptide-MHC complexes were produced by UV-ligand exchange, where a UV-sensitive peptide is cleaved upon UV-irradiation, and exchanged with the peptide of interest as analyzed. Only peptide candidates that can effectively bind and stabilize the peptide-receptive MHC molecules prevent dissociation of the MHC complexes. To determine the yield of the exchange reaction, an ELISA was performed based on the detection of the light chain (β2m) of stabilized MHC complexes. The assay was performed as generally described in Rodenko et al. (Rodenko et al., 2006).
96 well MAXISorp plates (NUNC) were coated over night with 2 ug/ml streptavidin in PBS at room temperature, washed 4× and blocked for 1h at 37° C. in 2% BSA containing blocking buffer. […] Peptide-MHC monomers of the UV-exchange reaction were diluted 100 fold in blocking buffer. Samples were incubated for 1h at 37° C., washed four times, incubated with 2 ug/ml HRP conjugated anti-β2m for 1h at 37° C., washed again and detected with TMB solution that is stopped with […]. Absorption was measured at 450 nm. Candidate peptides that show a high exchange yield (preferably higher than 50%, most preferred higher than 75%) are generally preferred for a generation and production of antibodies or fragments thereof, and/or T cell receptors or fragments thereof, as they show sufficient avidity to the MHC molecules and prevent dissociation of the MHC complexes.

Peptide exchange	Substance
″++++″ (≧75% = ++++)	177 (YLLPEEYTSTL; listed as Homo sapiens) [compound 177]
″++++″ (≧75% = ++++)	178 (ALTEIAFVV; listed as Homo sapiens) [compound 178]
″+++″ (≧50% = +++)	179 (KVLNELYTV; listed as Homo sapiens) [compound 179]
″++″ (≧20% = ++)	180 (FQIDPHSGLVTV; listed as Homo sapiens) [compound 180]
″+++″ (≧50% = +++)	181 (LLWAGTAFQV; listed as Homo sapiens) [compound 181]
″+++″ (≧50% = +++)	182 (MLLEAPGIFL; listed as Homo sapiens) [compound 182]
″+++″ (≧50% = +++)	183 (FGLDLVTEL; listed as Homo sapiens) [compound 183]
″+++″ (≧50% = +++)	184 (YLMDINGKMWL; listed as Homo sapiens) [compound 184]
″++″ (≧20% = ++)	185 (FLIDDKGYTL; listed as Homo sapiens) [compound 185]
″++″ (≧20% = ++)	186 (TLFFQQNAL; listed as Homo sapiens) [compound 186]
″+++″ (≧50% = +++)	187 (RQISIRGIVGV; listed as Homo sapiens) [compound 187]
″+++″ (≧50% = +++)	188 (GLFPVTPEAV; listed as Homo sapiens) [compound 188]
″+++″ (≧50% = +++)	189 (ALQRKLPYV; listed as Homo sapiens) [compound 189]
″+++″ (≧50% = +++)	190 (FLSSLTETI; listed as Homo sapiens) [compound 190]
″+++″ (≧50% = +++)	192 (KMLDGASFTL; listed as Homo sapiens) [compound 192]
″+++″ (≧50% = +++)	193 (QLLDADGFLNV; listed as Homo sapiens) [compound 193]
″+++″ (≧50% = +++)	194 (ALPLFVITV; listed as Homo sapiens) [compound 194]
″+++″ (≧50% = +++)	195 (GLFADLLPRL; listed as Homo sapiens) [compound 195]
″++++″ (≧75% = ++++)	196 (YLYSVEIKL; listed as Homo sapiens) [compound 196]
″++″ (≧20% = ++)	197 (ALGPEGGRV; listed as Homo sapiens) [compound 197]
″+++″ (≧50% = +++)	200 (LLFGSVQEV; listed as Homo sapiens) [compound 200]
″+++″ (≧50% = +++)	201 (RLVDYLEGI; listed as Homo sapiens) [compound 201]
″+++″ (≧50% = +++)	202 (ALLDQQGSRWTL; listed as Homo sapiens) [compound 202]
″++″ (≧20% = ++)	204 (KIAENVEEV; listed as Homo sapiens) [compound 204]

Peptide exchange	Substance
″+++″ (≧50% = +++)	205 (SLYPGTETMGL; listed as Homo sapiens) [compound 205]
″+++″ (≧50% = +++)	206 (VLQEGKLQKLAQL; listed as Homo sapiens) [compound 206]
″++″ (≧20% = ++)	207 (GLTSTNAEV; listed as Homo sapiens) [compound 207]
″+++″ (≧50% = +++)	208 (KISPVTFSV; listed as Homo sapiens) [compound 208]
″++″ (≧20% = ++)	209 (KLIESKHEV; listed as Homo sapiens) [compound 209]
″++″ (≧20% = ++)	210 (LLLNAVLTV; listed as Homo sapiens) [compound 210]
″++″ (≧20% = ++)	211 (LLWPGAALL; listed as Homo sapiens) [compound 211]
″++″ (≧20% = ++)	212 (ALWDQDNLSV; listed as Homo sapiens) [compound 212]
″+++″ (≧50% = +++)	214 (FLLDLDPLLL; listed as Homo sapiens) [compound 214]
″+++″ (≧50% = +++)	216 (NLWEDPYYL; listed as Homo sapiens) [compound 216]
″++″ (≧20% = ++)	217 (ALIHPVSTV; listed as Homo sapiens) [compound 217]
″++″ (≧20% = ++)	218 (SALEELVNV; listed as Homo sapiens) [compound 218]
″+++″ (≧50% = +++)	219 (KLSDIGITV; listed as Homo sapiens) [compound 219]
″++″ (≧20% = ++)	220 (LLQKFVPEI; listed as Homo sapiens) [compound 220]
″++″ (≧20% = ++)	221 (ALYEEGLLL; listed as Homo sapiens) [compound 221]
″++″ (≧20% = ++)	222 (NLIENVQRL; listed as Homo sapiens) [compound 222]
″+++″ (≧50% = +++)	223 (ALLENIALYL; listed as Homo sapiens) [compound 223]
″+++″ (≧50% = +++)	224 (TLIDAQWVL; listed as Homo sapiens) [compound 224]
″+++″ (≧50% = +++)	225 (SLLKVLPAL; listed as Homo sapiens) [compound 225]
″++″ (≧20% = ++)	226 (MLYVVPIYL; listed as Homo sapiens) [compound 226]
″++″ (≧20% = ++)	227 (ALMNTLLYL; listed as Homo sapiens) [compound 227]
″++″ (≧20% = ++)	228 (AMQEYIAVV; listed as Homo sapiens) [compound 228]
″++″ (≧20% = ++)	229 (RLPGPLGTV; listed as Homo sapiens) [compound 229]
″+″ (≧10% = +)	230 (ILVDWLVEV; listed as Homo sapiens) [compound 230]

Peptide exchange	Substance
″++″ (≧20% = ++)	231 (FLSPQQPPLLL; listed as Homo sapiens) [compound 231]
″++″ (≧20% = ++)	232 (ALLEAQDVELYL; listed as Homo sapiens) [compound 232]
″++″ (≧20% = ++)	233 (VLSETLYEL; listed as Homo sapiens) [compound 233]
″++″ (≧20% = ++)	234 (ALMEDTGRQML; listed as Homo sapiens) [compound 234]
″++++″ (≧75% = ++++)	235 (YLNDLHEVLL; listed as Homo sapiens) [compound 235]
″+++″ (≧50% = +++)	236 (GLLEAKVSL; listed as Homo sapiens) [compound 236]
″++++″ (≧75% = ++++)	237 (ALLEASGTLLL; listed as Homo sapiens) [compound 237]
″+++″ (≧50% = +++)	238 (YLISFQTHI; listed as Homo sapiens) [compound 238]
″+++″ (≧50% = +++)	239 (AAFAGKLLSV; listed as Homo sapiens) [compound 239]
″+++″ (≧50% = +++)	240 (ILLEQAFYL; listed as Homo sapiens) [compound 240]
″+++″ (≧50% = +++)	241 (SLVEVNPAYSV; listed as Homo sapiens) [compound 241]
″+++″ (≧50% = +++)	243 (LLLNELPSV; listed as Homo sapiens) [compound 243]
″+++″ (≧50% = +++)	244 (SLFGGTEITI; listed as Homo sapiens) [compound 244]
″+++″ (≧50% = +++)	245 (SMIDDLLGV; listed as Homo sapiens) [compound 245]
″+++″ (≧50% = +++)	246 (LLWEVVSQL; listed as Homo sapiens) [compound 246]
″+++″ (≧50% = +++)	248 (FLFPNQYVDV; listed as Homo sapiens) [compound 248]
″+++″ (≧50% = +++)	249 (LLDGFLVNV; listed as Homo sapiens) [compound 249]
″+++″ (≧50% = +++)	250 (ALSEEGLLVYL; listed as Homo sapiens) [compound 250]
″++″ (≧20% = ++)	251 (ALYTGFSILV; listed as Homo sapiens) [compound 251]
″+++″ (≧50% = +++)	252 (LLIGTDVSL; listed as Homo sapiens) [compound 252]
″++″ (≧20% = ++)	253 (GLDAATATV; listed as Homo sapiens) [compound 253]
″+++″ (≧50% = +++)	254 (TLLAFIMEL; listed as Homo sapiens) [compound 254]
″+++″ (≧50% = +++)	255 (VLASYNLTV; listed as Homo sapiens) [compound 255]
